Reference: the supplement of paper PMC9170038

Tested on: K4 kissing-loop RNA reporter
Test: apparent KD of K4 kissing-loop reporter; higher = weaker reporter binding
Conditions: Eterna round: R107
Protocol: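 RNA-MaP round R107: designed RNA switches with theophylline, tryptophan, arginine or FMN aptamers are transcribed on-chip within common flanks. They are titrated with a labelled K4 kissing-loop RNA reporter in RNA-MaP buffer (100 mM Tris pH 7.5, 80 mM KCl, 4 mM MgCl2), without ligand or with the indicated ligand. Median apparent KD per design.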

[1] = input ligand: theophylline 20 uM
[2] = input ligand: tryptophan 2.4 mM
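Note: bound reporter read as fluorescence of individual clusters on recovered sequencing chips by microscopy, with normalized cluster intensities fitted with a binding model.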

Sequence	apparent KD of K4 kissing-loop reporter (input ligand: FMN 200 uM)	apparent KD of K4 kissing-loop reporter (input ligand: arginine 13.2 mM)	apparent KD of K4 kissing-loop reporter (input ligand: none)	apparent KD of K4 kissing-loop reporter [1]	apparent KD of K4 kissing-loop reporter [2]
UGACAUUGCUCAGAUACCAGACAUGAGCAUCAGCCAUGUACCAAGAAAGUACAAUAAAAUGUCCCUUGGCAGCUGAGCAAUGUCU [TheoBX 8]	56.1 nM	25.6 nM	47.8 nM	121 nM	48.4 nM
GCUCAUCCGGCAGGAUAUAGGCAGGUAGAGUGAUGUUCGAACUGCAGUUAUCCAUCCUUCUACCUACUAGAAGGGCCGGAUGAGC	376 nM	214 nM	209 nM	188 nM	292 nM
GAUGCCAUGAUCCUCCUGGUAUCGGGAGAUACCAGCGUGCUGACACGCCCUUGGCAGCUCCAUUCGAGAGUGAUGUUGUCGAGAA [KL-SSTheo-A8 #analogue]	453 nM	114 nM	330 nM	237 nM	287 nM
CGAGAAAGAGCGACUGGCGAUCUGUCUGAAGGAGCGGGUGCUAGCCCAGGUAGGUCGCAGACUUUGACGCCAGUGAUGUUGGCGG [Titidiisxe]	210 nM	175 nM	222 nM	134 nM	178 nM
CUGACGAUGACACGGUGGCCGCUGGUCGUGCGAGGACCGGUACGGCCGCCACUCGCAUGAGUGAUGUUCAUGUGUCGUCGUCGUC [#08 K4 Tryptophan A Exclusion]	133 nM	101 nM	111 nM	112 nM	118 nM
GCCGUACGCAUGGAUACCAGCCGACAUGAUAUUUAGCUGGUGUCGUAGUGAUGUUACGAAGGCCCUUGGCAGCCAUGCGUACGGC	83.7 nM	72.7 nM	78.2 nM	79.1 nM	78.7 nM
CGCGCCCAGCCGGAUACCAGUGACCCGCUGGGAACCGCGGGCCCAGAGUGAUGUUCGGGACACCCUUGGCAGCCGCCUGGGCGAC [#2 Same State - Theophylline B Attempt #8 (HarryS)]	993 nM	378 nM	1130 nM	525 nM	509 nM
GAUCAUAGCACGGCCGCCACUGAUAUGCCGUGCUAUACGAGUGAUGUUCGUAAUUAUACGGGUAUCAGGACCGGGUGCAACGGUA [Tryp B SS t2]	149 nM	89.3 nM	113 nM	167 nM	112 nM
CGAGUGAUGUUCGAAGAGUUGUUAAGCGAUACCAGCUAGGAAACUGGCCCUUGGCAGCGUAAUAAAUAAAUAAAUAAAUGAUCAC [whbob_Ex_Theo_A_th62]	351 nM	414 nM	369 nM	456 nM	322 nM
CUUGAUCGAGGAAGGAGCGGGCCGUCAUUGAGCGCAGUGAUGUUGCGUUCGACUAGUCGAGCCCAGGUAGGUCGCCUGGAGUAAG [Lazalaa]	84.9 nM	76.1 nM	98.2 nM	78.2 nM	90.8 nM
AGACUACCACACUGUCAAUAGACAGUGAGCUAGGAUAUGCUGAUAAGCAGAAGGAGUGAUGUUCCGAGGUAGUCAAUAAAAUAAU [FmnAX 13 G29+G66]	395 nM	273 nM	261 nM	357 nM	257 nM
GCGGACAUUCGCAGUGAUGUUGCGACGGAAGGAGCGGAUGAAAAUCCAGGUAGGUCGCCGACAAAAUUAAUUUUAAUGUGUUCGC [#03 K4 Arginine A Same State]	358 nM	325 nM	437 nM	316 nM	324 nM
GUAUCGCUAGGAGGAUAUUUCAAUUCGCCUAUAAAUGGUGAUACGGAGUGAUGUUCCGAUUUACGGAAAGAAGGCCUAGUGAUAC [FMN B 8]	146 nM	275 nM	283 nM	298 nM	282 nM
GAGGCCAGACUGAGUGAUGUUUAGUAUGAUACCAGUAUCGAAGGAUACCCUUGGCAGCAUGCCACGGCCUCGGCGGGAAACCGCC	746 nM	663 nM	1000 nM	714 nM	876 nM
GACAGCCGGUCGGCCGCCACUUGGAGUGAUGUUCCGCGCGGCGGGCGCCGGAGGGCGUUAAGCCCAAGGACCGGGACCGGUAACG [Celeso]	114 nM	103 nM	92.9 nM	114 nM	104 nM
ACACGUGUGGCAGGAUAUCGGGCUGUGGAUCGGCUGGUUGCUUAUUCUCGACCAGUGAUGUUGGUACGAGAAGGGCUACCCAGAA [Diorce]	149 nM	113 nM	114 nM	102 nM	123 nM
AGUCCACUCUAAAGAGUGGACCUAAGGGAUACCAGUGAUGUUGGUCACCCUUGGCAGCCCGCUGUCAUCGAUAAAGAUGGCAGGA	133 nM	113 nM	129 nM	127 nM	125 nM
UGAUACCAGACGGCCGCCACUGCACCAGUCAAUGACUGAGUGUGGUAAUGCUCAGUGAUGUUGAGUAGGACCGGGUCUGGUAUCU [Mod of Eli's TrypBX 8 v2]	135 nM	124 nM	131 nM	114 nM	124 nM
AAAAUUGCGGUCGAUAGAACUUUUUGCUUACGAGGACCGGUACGGCCGCCACUCGAGUCAAGUGAUGUUUGAUUUUCUAUUAUUA [JR_ExcTryptoA_Sub014]	112 nM	166 nM	141 nM	176 nM	98.5 nM
AAUUUAUUAACUGAUACCAGACUUUAUUAUUUGUAAAUUACUAGUGAUGUUAGUGUUUCUGUCCCUUGGCAGCAGUAUUUAUUAA [JR_SSTheophyB_Sub024]	78.8 nM	142 nM	90.3 nM	134 nM	70.5 nM
GGUGCUGUUUGUGCCGCCUUCCUCGUUCCUCGAGGACCGGUACGGCCGCCACUCGAGUGAUGUUUGGGUAGCGAUCCCUGCUAGU [Bdazzled - #13 Exc. Tryptophan A]	892 nM	621 nM	963 nM	658 nM	799 nM
UUUGGUUUCUCGGCCGCCACUCGUUGGUUAUGGGCUUCAGGGAUAUAGUGAUGUUAUGUAUAGAAGAGGACCGGGAGAAGGUUUU [ExTryptoB.Du]	215 nM	368 nM	330 nM	434 nM	239 nM

Sequence	apparent KD of K4 kissing-loop reporter (input ligand: FMN 200 uM)	apparent KD of K4 kissing-loop reporter (input ligand: arginine 13.2 mM)	apparent KD of K4 kissing-loop reporter (input ligand: none)	apparent KD of K4 kissing-loop reporter [1]	apparent KD of K4 kissing-loop reporter [2]
GCCAGCAGUACUGAUACCAGACUGCAUGUAGUGAUGUUGCAUAAGGGCAUAGAUGUCUCAGUCCCUUGGCAGCGGUACUGUUGCA [#10 K4 Theophylline B Same State]	335 nM	252 nM	330 nM	199 nM	241 nM
AAGGUCACUACUACAGUGAUGUUGUGGGAGCAGGAUAUGCAGAAAUGCAGAAGGGCUCGCUCCAAGUGACCGAAUGAAACAUUCA [Omei KL FMN A SS A v1]	1170 nM	876 nM	839 nM	1210 nM	938 nM
AAGUGUCAUUAGACACACCGAUGUAUAAACUAGGAUAUGCUGAUAAGCAGAAGGAGUGAUGUUCCUUUCAUCAUCGGAAUUAAAU [#06 K4 FMN A Exclusion]	301 nM	161 nM	160 nM	175 nM	144 nM
GGUGCUGUCUGUGCCGCCCUCCUCGUCCCUCGAGGACCGGUACGGCCGCCACUCGAGUGAUGUUCGGGUAGCCAUCCCUGCCAGC [BDazzled - #20 Exc. Tryptophan A]	527 nM	328 nM	431 nM	341 nM	322 nM
AAUAAAAGAUGUUUAGGAAAGAAAAUGGAAGGAGCGUGCGAAAGCACAGGUAGGUCGCCAGUGAUGUUGGAACCUGAGCAUCAAA [#SwitchBubble 15 #K4Late]	827 nM	479 nM	699 nM	677 nM	436 nM
AUUUUUUUAUCAGGAUAUUAGUGAUGGUUGUUUUUGUUAGUGAUGUUGAUAUUUGUUUUAUGUAUUUAAGAAGGGAUUGAGAUGU [zbbzmullin]	68.1 nM	24.7 nM	42.9 nM	31.7 nM	49.7 nM
ACACUAUCGUCAUAGACGGUAGUGAAAUGUGAGGAUAUGAGUGAUGUUAGAAGGCACAAAGACUGUAUCGAAUAGAUACAGUCAA [FmnA 6 #K4BetweenAptamer #OpenEnded]	558 nM	96.5 nM	139 nM	127 nM	120 nM
GCCUAGGCUCGAAAGAGCCUAGGCUUGUCUCAGGAUAUCUGGAAACAGAGAAGGGAGCUACUAGUGAUGUUAGGAAUUCCCUAAG	149 nM	122 nM	112 nM	92.3 nM	98 nM
GCCGUACGCAUGGAUACCAGAGAUGUUAAUCUCGAUGCCAGUGAUGUUGGCUUUAGCAUACUCCCUUGGCAGCCAUGCGUACGGC	312 nM	241 nM	292 nM	186 nM	267 nM
GCCUUUUUUCGAGCUACAGCUCGAUUUGGUCGAGGACCGGUACGGCCGCCACUCGAAUGAUAGUGAUGUUAUCAUUAUGGCAUAA [JR_ExcTryptoA_Sub023]	196 nM	166 nM	176 nM	186 nM	152 nM
AUUAAUUUCAGAGGAUAUCGUUAUUUUUUUAAGUAUAAUCUAUUAUGCAGUGAUGUUGCUAUUAAUCGAGAAGGCUGAUUUAUAA [JR_ExcFMNB_Sub001]	114 nM	141 nM	79.5 nM	134 nM	78.5 nM
UGUCAUUGGUCGGCCGCCACUUUAUAUGGAGUGAUGUUUUGUAAAUUGUGUUGAAAGGUGUGGUAAAGGACCGGGACCGAUGACU [FiskerMod 26 - Jieux - Same State - Tryptophan B]	1030 nM	637 nM	931 nM	727 nM	651 nM
CGUUUAUAGCAGGAUACCAGUACCGAUAAAGUACGUUAAUAGUAGAGUGAUGUUCUAAAGUACCCUUGGCAGCUUAGAGUGAGUG [ExTheophylB.P]	95.3 nM	142 nM	111 nM	162 nM	74.5 nM
AUGUAUGAAUUAGGAUAUCGUUAGCCUAUCAUAUAUAUGAUAAAUGGAUAUGUCGUAGUGAUGUUACGAGAAGGAGUGUGGAGUA [KL-XFMN-B7]	55.8 nM	62.9 nM	55.4 nM	82.7 nM	39 nM
GCAUGGAUCGCAGGAUAUAGAUCCGUGAGUGAAUUCUUGCCAGUGAGGAGUGAUGUUCCUCAUGGGCUAGAAGGGCGAUCCAUGC	140 nM	80.8 nM	89.4 nM	85.9 nM	83.5 nM
UGAUAGGACAGAAGGAGCGGAAGUGAUGUUUCCUAAAGGAUAAAGGUGUCAAAGACACCCUUCCAGGUAGGUCGCUGUCCUAUCU [ArgBX 16 #Palindromic #SwitchBubble #StaticStem]	549 nM	923 nM	579 nM	532 nM	566 nM
AAAAGAAAGUCGGCCGCCACUCAACGCAGUGAUGUUGCAAGACAGAAGACCAGUGAUGUUGGCCAGAGGACCGGGACAAAAGGCC [Same State Typtophan B GF 4]	591 nM	945 nM	842 nM	435 nM	464 nM
AAAUUUUCAAGUGAUACCAGACAUUUUUAUUUCUUUAUUUAUGCUAAGUGAUGUUUAGCAGUCCCUUGGCAGCACUAUUUAAUUA [JR_Nu_SSTheophyB_Sub030]	127 nM	174 nM	141 nM	231 nM	144 nM
UUAGGAGUGGGAGGAUAUCCUAAUAUGGGUGAUGUUAGCGAUGUUGAAAGUGUAGUGAUGUUGUGCGGAGAAGGUCCAGUGUUGA [BDazzled - #13 - Exc. FMN B]	196 nM	126 nM	178 nM	222 nM	161 nM
GGUAGCAUGGCGGCCGCCACUAUCCUUCAUGGUUGACAUUAAGGAUAGCAUAGUGAUGUUAUGAAUAGGACCGGGCCAUGCUACC	175 nM	136 nM	163 nM	137 nM	149 nM
ACAGUCGGCUGUGAUACCAGUCGUAUUACAACAUGUUGCAGUGAUGUUGCGAGAUAGGAUGACCCUUGGCAGCACUCAGUACGAU [Same State Theophylline B GF9]	310 nM	99.7 nM	173 nM	179 nM	144 nM
CUGACUAAAUAGUCAGUGAUGUUGACUGGACGAGGACCGGUACGGCCGCCACUCGAGAGUGGUGUAAUAUAUGUCAUAUAGUCAA [Tryp A SS t3]	517 nM	258 nM	436 nM	423 nM	233 nM
